The target of one experiment is T1, 6× His-tagged p16^INK4a (human, UniProt P42771 1-156).
T1 construct: p16^INK4a, the major isoform of CDKN2A, human; also called His-p16^INK4a; CDKN2A
T1 sequence (looked up): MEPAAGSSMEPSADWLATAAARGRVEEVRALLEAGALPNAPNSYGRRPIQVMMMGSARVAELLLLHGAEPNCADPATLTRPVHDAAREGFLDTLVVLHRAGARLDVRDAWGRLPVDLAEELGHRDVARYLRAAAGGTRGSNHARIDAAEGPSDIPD
Put plainly: pull-down; binding reaction (500 μl) with 100 μl purified His-p16^INK4a (or His-PRMT5) and increasing amounts (50, 100, 200, 400 μl) of purified His-PRMT5 (or His-p16^INK4a) incubated with GST-fused CDK4 1-70 aa; Western blot. The conditions noted are these: both partners purified. On the technique in general: A western blot detects proteins with antibodies after separation by electrophoresis.

The target of another experiment is T2, 6× His-tagged PRMT5 (human, UniProt O14744 1-637).
T2 construct: protein arginine methyltransferase 5 (PRMT5), human; also called His-PRMT5
T2 sequence (O14744 whole entry): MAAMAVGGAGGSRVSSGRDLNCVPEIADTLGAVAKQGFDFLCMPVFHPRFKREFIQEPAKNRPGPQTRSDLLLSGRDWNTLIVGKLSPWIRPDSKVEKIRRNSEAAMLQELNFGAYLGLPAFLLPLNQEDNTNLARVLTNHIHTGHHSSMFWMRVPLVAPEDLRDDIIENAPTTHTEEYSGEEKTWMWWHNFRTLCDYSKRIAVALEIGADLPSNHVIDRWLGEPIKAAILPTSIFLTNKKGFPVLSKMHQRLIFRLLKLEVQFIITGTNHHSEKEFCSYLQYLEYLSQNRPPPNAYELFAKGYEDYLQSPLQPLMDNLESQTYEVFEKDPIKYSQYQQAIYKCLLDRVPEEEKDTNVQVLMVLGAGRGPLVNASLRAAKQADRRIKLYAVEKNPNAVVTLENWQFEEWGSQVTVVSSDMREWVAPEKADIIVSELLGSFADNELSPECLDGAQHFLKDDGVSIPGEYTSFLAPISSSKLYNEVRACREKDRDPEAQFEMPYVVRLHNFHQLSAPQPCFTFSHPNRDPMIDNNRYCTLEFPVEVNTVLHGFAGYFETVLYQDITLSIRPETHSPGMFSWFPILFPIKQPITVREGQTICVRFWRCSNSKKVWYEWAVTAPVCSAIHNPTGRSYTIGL
The description is as above. To be noted: both partners purified.

The record followed here is article PMC5342150, “PRMT5 competitively binds to CDK4 to promote G1-S transition upon glucose induction in hepatocellular carcinoma” (Oncotarget, 2016).

B1: GST-fused CDK4 1-70 aa (domain or fragment, human, UniProt P11802-1 1-70, looked up)
chain: MATSRYEPVAEIGVGAYGTVYKARDPHSGHFVALKSVRVPNGGGGGGGLPISTVREVALLRRLEAFEHPN
notes: cyclin dependent kinase 4 (CDK4), human, amino acids 1-70 of NP_000066; also called GST-CDK4 fragment 1-70; source: E. coli BL21, purified (glutathione-Sepharose 4B beads)
For the molecule B1, the binding result with 6× His-tagged p16^INK4a and in the experiment with 6× His-tagged PRMT5 was “binds” throughout.
